According to publication PMC3817407:
Values joined by “and” are separate entries in the source; they are usually repeats but may differ in a detail not shown here. Equal entries are not always repeated.

T1: ECF02_2817
T1 chain: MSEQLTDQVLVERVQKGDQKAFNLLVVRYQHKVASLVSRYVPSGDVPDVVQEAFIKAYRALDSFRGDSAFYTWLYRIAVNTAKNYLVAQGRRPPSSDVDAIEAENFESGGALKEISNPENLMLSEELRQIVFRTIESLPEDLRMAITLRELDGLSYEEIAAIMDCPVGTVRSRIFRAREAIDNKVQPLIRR

T2: ECF03_1198
T2 chain: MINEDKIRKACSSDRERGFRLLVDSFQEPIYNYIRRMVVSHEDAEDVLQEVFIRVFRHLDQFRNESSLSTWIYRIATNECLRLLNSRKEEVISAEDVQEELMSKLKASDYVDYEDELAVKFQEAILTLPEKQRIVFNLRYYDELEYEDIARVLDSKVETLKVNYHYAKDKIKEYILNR

T3: ECF14_3200
T3 chain: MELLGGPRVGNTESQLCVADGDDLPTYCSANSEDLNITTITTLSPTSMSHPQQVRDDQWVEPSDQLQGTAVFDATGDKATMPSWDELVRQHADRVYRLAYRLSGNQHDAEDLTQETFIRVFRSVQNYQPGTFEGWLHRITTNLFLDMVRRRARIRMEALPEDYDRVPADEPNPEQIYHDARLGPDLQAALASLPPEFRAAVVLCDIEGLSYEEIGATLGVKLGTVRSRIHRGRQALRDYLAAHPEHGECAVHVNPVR

T4: ECF16_973
T4 chain: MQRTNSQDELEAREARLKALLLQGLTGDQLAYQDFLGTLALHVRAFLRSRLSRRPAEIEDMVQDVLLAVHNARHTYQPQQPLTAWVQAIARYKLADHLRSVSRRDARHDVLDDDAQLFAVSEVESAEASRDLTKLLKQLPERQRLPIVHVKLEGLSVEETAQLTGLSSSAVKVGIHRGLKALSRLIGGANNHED

T5: ECF17_1458
T5 chain: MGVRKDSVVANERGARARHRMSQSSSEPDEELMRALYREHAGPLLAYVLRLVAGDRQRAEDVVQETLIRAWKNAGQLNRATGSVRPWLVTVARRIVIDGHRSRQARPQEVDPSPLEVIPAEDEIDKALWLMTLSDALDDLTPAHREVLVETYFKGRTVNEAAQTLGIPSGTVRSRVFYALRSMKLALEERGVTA

T6: ECF20_992
T6 chain: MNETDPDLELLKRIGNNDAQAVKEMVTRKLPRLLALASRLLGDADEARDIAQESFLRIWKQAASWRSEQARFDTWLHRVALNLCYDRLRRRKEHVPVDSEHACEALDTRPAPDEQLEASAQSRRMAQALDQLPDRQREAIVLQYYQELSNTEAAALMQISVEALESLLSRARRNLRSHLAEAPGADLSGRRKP

T7: ECF25_1643
T7 chain: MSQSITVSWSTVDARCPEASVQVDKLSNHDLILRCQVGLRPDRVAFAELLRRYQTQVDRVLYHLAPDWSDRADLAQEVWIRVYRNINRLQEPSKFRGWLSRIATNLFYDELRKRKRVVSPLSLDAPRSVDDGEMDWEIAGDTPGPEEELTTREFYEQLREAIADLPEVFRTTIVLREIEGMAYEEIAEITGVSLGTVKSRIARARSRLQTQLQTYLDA

T8: ECF27_4265
T8 chain: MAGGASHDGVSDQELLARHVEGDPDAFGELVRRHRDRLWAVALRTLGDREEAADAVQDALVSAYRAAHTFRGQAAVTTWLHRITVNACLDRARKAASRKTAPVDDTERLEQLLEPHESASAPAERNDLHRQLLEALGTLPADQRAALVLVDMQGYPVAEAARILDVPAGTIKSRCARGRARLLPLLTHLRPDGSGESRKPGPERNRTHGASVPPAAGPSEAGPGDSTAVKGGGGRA

T9: ECF28_1040
T9 chain: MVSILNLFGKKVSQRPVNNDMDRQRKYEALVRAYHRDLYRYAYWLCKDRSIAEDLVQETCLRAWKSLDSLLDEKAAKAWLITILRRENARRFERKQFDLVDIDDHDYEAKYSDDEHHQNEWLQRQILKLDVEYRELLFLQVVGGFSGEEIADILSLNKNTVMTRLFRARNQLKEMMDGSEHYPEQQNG

T10: ECF28_1088
T10 chain: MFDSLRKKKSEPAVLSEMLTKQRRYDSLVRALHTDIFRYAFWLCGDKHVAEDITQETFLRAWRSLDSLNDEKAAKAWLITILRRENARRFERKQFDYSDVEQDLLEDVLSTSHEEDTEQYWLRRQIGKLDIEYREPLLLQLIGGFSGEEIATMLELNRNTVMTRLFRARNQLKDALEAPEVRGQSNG

T11: ECF30_35
T11 chain: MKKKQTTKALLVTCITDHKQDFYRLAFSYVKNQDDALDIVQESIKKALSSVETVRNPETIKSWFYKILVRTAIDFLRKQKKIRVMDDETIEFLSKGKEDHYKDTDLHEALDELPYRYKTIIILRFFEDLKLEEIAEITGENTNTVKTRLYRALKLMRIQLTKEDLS

T12: ECF31_34
T12 chain: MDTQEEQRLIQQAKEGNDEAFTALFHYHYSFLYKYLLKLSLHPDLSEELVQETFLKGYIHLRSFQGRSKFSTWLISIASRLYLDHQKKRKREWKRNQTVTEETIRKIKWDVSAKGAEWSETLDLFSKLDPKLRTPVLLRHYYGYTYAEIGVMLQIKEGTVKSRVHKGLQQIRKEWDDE

T13: ECF33_423
T13 chain: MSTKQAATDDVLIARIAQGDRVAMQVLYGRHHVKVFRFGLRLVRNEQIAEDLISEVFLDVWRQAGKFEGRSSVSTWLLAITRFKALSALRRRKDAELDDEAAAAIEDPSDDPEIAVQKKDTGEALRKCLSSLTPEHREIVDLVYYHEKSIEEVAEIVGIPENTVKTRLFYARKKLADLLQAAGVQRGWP

B1: AS37_2513 (protein)
chain: MSSAPATKEEVDFALKVRRALDERAASLPDATTDRLAAARRAALARKKPDAAIVLVPALAGSAGTLELRPPGEPRKSLARRLARAWPLALLLAGLIGIAYWEDMQRTAELADIDAAMLSDNLPLTAYLDHGFNAYLSHTH
B2: AS38_1322 (protein)
chain: MSDGNDARPDARDGHDPGSDARDGHDPGSHARDGHDPGAGPFDGHGPGSDAGDGDDAGPDARDGHGAPAGPAGREQRKHPHDTHDMHDTHDTHAGKGTVNHGPAAQGPDAPGADGPATDEAALRAMMQRAVREMEPSDGTLEHLRRAVPARRARKRQALVGAAAAALFLGTAVPALVHVSNATGAGADPSVAGNASQAQGGASQGKDPAGGQSGVAGTGDTPEDRDKADPKETPGGKEPGAATGAPPSGVPSASSPADVPACAPGSLGPAVASSAEPDSTGVVYGSFRVTNVSSDGCTVTGPGTVVTASLGAAEATRIGTARHAAGDAAAGLPDPSLETASLALAPGAAYEVQFAWVPSETCPTTGGTTGGGSGGPSPDPSPTADTTAAGGTSAGGGEAGPTTQLITEDGPAEGSVSVTYTPEGGSGSATATVSNACAGTVYWTGLLADSGSGA
B3: AS35_3582 (protein)
chain: MNPQKHSASVAEEQMLAHFRAHAPQQPAPALDQAILAAARRQAAHVEPARSWWRRWLEASRRPRWQAAFASLLGVALVLGLVSHNVLDDAERQARPEVAFSDVPLRDGVAGAAAAKRAMRAPAAPAPLSGEMSEPPALLASYASSGEAPQLMAEAAPPAPAALADRPPAQAAQQAKVQAALAGDFVAQARGKAVAVKPEVLDEALGAVLALREQGKTEQAATQLAELQKRFPGENLVERLERLATIAASARKRP

Target: T1, ECF02_2817
B1 was tested, and the fold repression was 4.08. Binder B2 has a fold repression of 4.35. B3 gave a fold repression of 6.36.

Target: T2, ECF03_1198
In the case of B1, the fold repression is reported as 4.01. Work on B2 yielded a fold repression of 5.72. B3 gave a fold repression of 6.26.

Target: T3, ECF14_3200
Binder B1 has a fold repression of 11.4. For B2, the fold repression was 8.3. In the case of B3, the fold repression is reported as 11.7.

Target: T4, ECF16_973
B1 showed a fold repression of 3.54. Binder B2 has a fold repression of 4.09. B3 gave a fold repression of 3.39.

Target: T5, ECF17_1458
B1 gave a fold repression of 5.87. B2 showed a fold repression of 4.75. B3 was tested, and the fold repression was 7.06.

Target: T6, ECF20_992
B1 was tested, and the fold repression was 5.31. B2 gave a fold repression of 3.28. Work on B3 yielded a fold repression of 3.26.

Target: T7, ECF25_1643
With B1 the fold repression was 5.22 and 5.59. B2 was tested, and the fold repression was 4.12 and 4.01. With B3 the fold repression was 5.68 and 4.69.

What follows are binders tested against ECF27_1331.
For B1, the fold repression was 6.45. Work on B2 yielded a fold repression of 5.61. Binder B3 has a fold repression of 7.23.

Target: T8, ECF27_4265
B1 gave a fold repression of 2.71. Binder B2 has a fold repression of 2.33. With B3 the fold repression was 2.28.

Target: T9, ECF28_1040
B1 showed a fold repression of 2.67. B2 showed a fold repression of 2.92. For B3, the fold repression was 2.76.

Target: T10, ECF28_1088
Work on B1 yielded a fold repression of 3.31. With B2 the fold repression was 3.19. B3 was tested, and the fold repression was 3.76.

Target: T11, ECF30_35
B1 showed a fold repression of 3.08. With B2 the fold repression was 3.08. With B3 the fold repression was 2.03.

Target: T12, ECF31_34
B1 was tested, and the fold repression was 3.08. With B2 the fold repression was 4.78. For B3, the fold repression was 5.2.

Target: T13, ECF33_423
Binder B1 has a fold repression of 3.3. B2 gave a fold repression of 3.68. Work on B3 yielded a fold repression of 3.76.
